Experiment [1] concerns the target T1, マウスROBO4 (pCI−mROBO4導入細胞) (mouse, UniProt Q8C310 28-1012).
T1 construct: also called mouse ROBO4; mROBO4
T1 sequence: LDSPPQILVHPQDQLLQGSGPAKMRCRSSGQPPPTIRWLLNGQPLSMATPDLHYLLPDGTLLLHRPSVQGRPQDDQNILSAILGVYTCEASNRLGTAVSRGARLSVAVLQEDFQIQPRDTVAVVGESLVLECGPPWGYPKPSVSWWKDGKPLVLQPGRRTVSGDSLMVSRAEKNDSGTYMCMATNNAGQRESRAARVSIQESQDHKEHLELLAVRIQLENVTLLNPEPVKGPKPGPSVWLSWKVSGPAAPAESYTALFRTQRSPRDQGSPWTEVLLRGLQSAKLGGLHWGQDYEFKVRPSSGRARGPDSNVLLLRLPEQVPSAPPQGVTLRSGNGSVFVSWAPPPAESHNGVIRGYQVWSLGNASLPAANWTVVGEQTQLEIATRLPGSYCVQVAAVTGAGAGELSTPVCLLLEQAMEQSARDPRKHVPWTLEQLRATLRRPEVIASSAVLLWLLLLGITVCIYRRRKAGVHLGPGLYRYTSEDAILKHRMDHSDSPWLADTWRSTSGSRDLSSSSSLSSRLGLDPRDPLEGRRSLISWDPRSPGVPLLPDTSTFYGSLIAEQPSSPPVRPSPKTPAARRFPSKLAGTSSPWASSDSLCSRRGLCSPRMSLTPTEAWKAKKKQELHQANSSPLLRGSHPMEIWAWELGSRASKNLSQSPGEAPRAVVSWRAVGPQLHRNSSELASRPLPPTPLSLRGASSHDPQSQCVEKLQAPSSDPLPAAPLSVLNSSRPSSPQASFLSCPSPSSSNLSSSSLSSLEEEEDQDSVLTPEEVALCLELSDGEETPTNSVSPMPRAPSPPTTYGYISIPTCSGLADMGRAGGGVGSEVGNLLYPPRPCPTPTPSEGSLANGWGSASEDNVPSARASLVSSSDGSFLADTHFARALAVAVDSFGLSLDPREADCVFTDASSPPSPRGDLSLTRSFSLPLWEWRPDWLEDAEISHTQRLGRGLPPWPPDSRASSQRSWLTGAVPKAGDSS
In words: flow cytometry, transfected HEK293 cells.

Another experiment deals with T2, ヒトROBO3 (human, UniProt Q96MS0 21-1386).
T2 construct: also called hROBO3; pCI−hROBO3
T2 sequence: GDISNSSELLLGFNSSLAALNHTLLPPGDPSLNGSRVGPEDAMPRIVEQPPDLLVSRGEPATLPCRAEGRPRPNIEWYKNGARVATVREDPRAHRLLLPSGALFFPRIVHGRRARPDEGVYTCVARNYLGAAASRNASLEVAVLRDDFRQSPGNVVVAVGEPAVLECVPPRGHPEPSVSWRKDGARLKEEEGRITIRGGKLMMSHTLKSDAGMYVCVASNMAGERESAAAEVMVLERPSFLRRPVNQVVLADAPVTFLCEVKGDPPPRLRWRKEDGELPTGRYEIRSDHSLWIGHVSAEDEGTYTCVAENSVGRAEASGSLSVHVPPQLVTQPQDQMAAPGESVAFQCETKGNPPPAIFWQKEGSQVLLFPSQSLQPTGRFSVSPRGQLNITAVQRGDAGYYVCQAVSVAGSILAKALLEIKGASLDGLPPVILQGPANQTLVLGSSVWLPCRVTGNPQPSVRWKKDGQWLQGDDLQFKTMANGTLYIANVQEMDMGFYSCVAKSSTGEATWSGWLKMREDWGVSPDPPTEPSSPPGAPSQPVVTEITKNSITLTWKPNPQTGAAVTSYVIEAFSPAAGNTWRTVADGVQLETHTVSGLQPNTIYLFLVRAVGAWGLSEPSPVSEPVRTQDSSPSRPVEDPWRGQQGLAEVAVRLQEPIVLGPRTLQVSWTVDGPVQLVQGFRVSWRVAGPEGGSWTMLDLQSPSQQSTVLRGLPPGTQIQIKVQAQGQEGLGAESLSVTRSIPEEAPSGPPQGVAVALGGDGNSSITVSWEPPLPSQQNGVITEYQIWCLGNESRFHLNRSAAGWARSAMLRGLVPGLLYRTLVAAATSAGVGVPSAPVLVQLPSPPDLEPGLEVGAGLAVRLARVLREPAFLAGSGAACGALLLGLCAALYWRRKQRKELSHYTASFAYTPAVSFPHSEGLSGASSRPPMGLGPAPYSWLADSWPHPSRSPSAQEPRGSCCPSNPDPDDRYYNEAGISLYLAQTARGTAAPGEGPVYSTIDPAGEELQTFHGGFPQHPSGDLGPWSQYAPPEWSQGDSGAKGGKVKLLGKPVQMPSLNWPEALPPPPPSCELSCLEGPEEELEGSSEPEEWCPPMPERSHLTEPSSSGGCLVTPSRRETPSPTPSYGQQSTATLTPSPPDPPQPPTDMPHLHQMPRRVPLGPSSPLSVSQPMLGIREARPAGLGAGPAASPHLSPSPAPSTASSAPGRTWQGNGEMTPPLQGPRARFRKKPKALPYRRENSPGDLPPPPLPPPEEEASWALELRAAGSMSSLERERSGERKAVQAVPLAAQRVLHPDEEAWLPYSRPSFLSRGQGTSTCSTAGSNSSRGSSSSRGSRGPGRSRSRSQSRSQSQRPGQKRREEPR
In words: flow cytometry, transfected HEK293 cells.

Experiment [2] has as its target T3, rROBO4−ECD (ヒトROBO4細胞外領域ポリペプチド) (human, UniProt Q8WZ75 28-461).
T3 construct: It was cloned in pEF6/V5-His-TOPO; also called ヒトROBO4−ECD; rROBO4-ECD
T3 sequence: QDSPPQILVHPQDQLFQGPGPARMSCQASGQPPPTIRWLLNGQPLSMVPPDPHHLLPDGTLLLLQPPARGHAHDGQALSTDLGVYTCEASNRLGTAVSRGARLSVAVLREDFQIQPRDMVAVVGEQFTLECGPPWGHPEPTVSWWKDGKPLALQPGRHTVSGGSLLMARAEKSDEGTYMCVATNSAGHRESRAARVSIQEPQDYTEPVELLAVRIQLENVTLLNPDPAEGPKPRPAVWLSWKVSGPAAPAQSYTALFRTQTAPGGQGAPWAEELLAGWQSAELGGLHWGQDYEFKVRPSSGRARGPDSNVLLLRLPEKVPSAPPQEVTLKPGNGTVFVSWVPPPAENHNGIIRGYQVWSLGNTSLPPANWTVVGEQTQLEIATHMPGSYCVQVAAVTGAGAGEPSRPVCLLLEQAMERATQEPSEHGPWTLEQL
In words: SPR, Biacore 3000; antibody captured by anti-human IgG on CM5 chip, rROBO4-ECD (0.1-200 nM) as analyte, 1:1 model.

Substitutions are numbered along the chain they refer to.

B1: ヒト化MAb1抗体 H−2143 (antibody, human IgG2, kappa, V domains shown)
VH: EVQLVESGGGLVQPGGSLRLSCAASGFTFSTYAMSWVRQAPGKRLEWVATISQGGTYTYYPDSVKGRFTISRDNAKNTLYLQMNSLRAEDTAVYYCARLIYYDYLDYWGQGTLVTVSS
VL: DIVMTQSPLSLPVTLGEPASISCRSSQSLENENKNLYLNWYLQKPGQSPQLLIYRVSNRFSGVPDRFSGSGSGTDFTLKISRVEAEDVGVYYCLQVTHVPWTFGPGTKVDIKR
notes: Humanised IgG2 / kappa; also called H-2143; hMAb1-H4 / hMAb1-L2
Regarding B1, the binding result in experiment [1] is listed as “no binding (tested: 10 μg/mL (method of 4)-3-2))”; with ヒトROBO3, “no binding (tested: 10 μg/mL (method of 4)-4-2))”. Moreover, in experiment [2], the Kd is 1.7 nM.

B2: ヒト化MAb1抗体 H−2140 (antibody, human IgG2, kappa, V domains shown)
VH: B1 VH
VL: B1 VL with E32S, K34G, L36T
notes: Humanised IgG2 / kappa; also called H-2140; hMAb1-H4 / hMAb1-L1
For B2, the values for the binding result (in experiment [1]; with ヒトROBO3) were “no binding (tested: 10 μg/mL (method of 4)-3-2))” and “no binding (tested: 10 μg/mL (method of 4)-4-2))”, respectively. In experiment [2], this molecule returned a Kd of 1.8 nM.

B3: ヒト化MAb1抗体 H−1143 (antibody, human IgG2, kappa, V domains shown)
VH: B1 VH with R44G
VL: B1 VL
notes: Humanised IgG2 / kappa; also called H-1143; hMAb1-H2 / hMAb1-L2
B3: the binding result in experiment [1] is on record as “no binding (tested: 10 μg/mL (method of 4)-3-2))”; with ヒトROBO3 it was “no binding (tested: 10 μg/mL (method of 4)-4-2))”. In experiment [2], this molecule registered a Kd of 3.5 nM.

B4: 抗ROBO4マウスモノクローナル抗体 MAb1 (antibody, V domains shown)
VH: EVQLVESGGGLVKPGGSLKLSCAASGFTFSTYAMSWVRQTPEKRLEWVATISNGGTYTYYPDSVKGRFTISRDNAENTLYLQMSSLRSEDTAMYFCARLIYYDYLDYWGHGTTLTVSS
VL: DAVMTQTPLSLPVSLGDQASISCRSSQSLENSNGNTYLNWYFQKPGQSPQLLIYRVSNRFSGVLDRFSGSGSGTDFTLKISRVEAEDFGVYFCLQVTHVPWTFGGGTKLEIKR
notes: Mouse IgG1 (gamma 1) / kappa from a hybridoma; The constant regions are not in the listing; also called MAb1
Take B4: the binding result (in experiment [1]; with ヒトROBO3) was “no binding (tested: 10 μg/mL)” each time.
